# Biological target: the molecule itself
# Assay: SDS-PAGE / Western blot, self-association
# Procedure: SDS-PAGE and immunoblotting. The purity of cathelin-like or hCAP18/LL-37 protein was first confirmed by SDS-PAGE followed by Coomassie blue and silver staining. For Western blot, protein was separated by SDS-PAGE and was then transferred to nitrocellulose membranes using the Bio-Rad system. Membranes were blocked for 1 h at room temperature with 0.1% low fat milk in 50 mM Tris-HCl, pH 7.5, 150 mM NaCl, 0.2% Tween-20, and were probed overnight at […] with chicken polyclonal anticathelin-like antibodies (1:15,000) to detect cathelin-like protein or with rabbit anti-LL-37 antibodies (1:6000) to detect full-length hCAP18/LL-37, followed by extensive washing. Immunoreactive materials were detected by enhanced chemiluminescence using horseradish peroxidase conjugated antichicken antibodies (1:20,000) or horseradish peroxidase conjugated antirabbit antibodies (1:5000).
protein,measurement,value
"His-tagged cathelin-like fusion protein (before enterokinase digestion), approximately 16 kDa (other, not shown: small tags and cut ends, also called His-tagged cathelin-like protein before cleavage; cathelin-like protein before digestion with enterokinase) QVLSYKEAVLRAIDGINQRSSDANLYRLLDLDPRPTMDGDPDTPKPVSFTVKETVCPRTTQQSPEDCDFKKDGLVKRCMGTVTLNQARGSFDISCDKDNKR",binding result,binds

# Reference: patent publication US7173007 (University of California, dated 2007)
